Measured values taken from PMC8699515.

Target: T1, C-reactive protein (CRP) from human pleural fluid (human) (UniProt P02741)
T1 sequence: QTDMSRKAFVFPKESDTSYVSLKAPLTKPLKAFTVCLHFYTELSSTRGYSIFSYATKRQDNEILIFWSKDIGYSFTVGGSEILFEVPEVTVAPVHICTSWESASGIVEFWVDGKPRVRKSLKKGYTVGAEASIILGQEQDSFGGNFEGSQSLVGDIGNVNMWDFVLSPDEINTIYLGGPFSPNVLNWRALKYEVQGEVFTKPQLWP
Test: ELISA; phage screening ELISA: CRP 0.25 ug/well coated overnight at 4 C on MaxiSorp, saturated with 3% BSA-PBS; phages in culture supernatant (100 uL, not normalised) 2 h at room temperature; anti-M13 HRP, TMB, absorbance at 450 nm; ratio of the CRP signal to the BSA control, triplicates

B1: anti-CRP nanobody H7 displayed on phage (VHH)
VHH: EVQLQASGGGLVQAGGSLRLSCAASGRTFSSYATGWYRQAPGKERELVAAISSGGSTYYADSVKGRFTISRDNAKNTVYLQMNSLKAEDTAVYYCAGGRRVGVLIGNEYDYWGQGTLVTVSS
- Screening ELISA (CRP/BSA Signal): 7.1
